# Experimental data taken from patent US12624112 (MABWELL SHANGHAI BIOSCIENCE, dated 2026).
# Substitutions are numbered along the chain they refer to.
# T1: ST2 on the effector cells (KU812, KU812/NF-κB-1#, HUVEC, HMC-1) (human, UniProt Q01638 19-556)
# T1 sequence (looked up): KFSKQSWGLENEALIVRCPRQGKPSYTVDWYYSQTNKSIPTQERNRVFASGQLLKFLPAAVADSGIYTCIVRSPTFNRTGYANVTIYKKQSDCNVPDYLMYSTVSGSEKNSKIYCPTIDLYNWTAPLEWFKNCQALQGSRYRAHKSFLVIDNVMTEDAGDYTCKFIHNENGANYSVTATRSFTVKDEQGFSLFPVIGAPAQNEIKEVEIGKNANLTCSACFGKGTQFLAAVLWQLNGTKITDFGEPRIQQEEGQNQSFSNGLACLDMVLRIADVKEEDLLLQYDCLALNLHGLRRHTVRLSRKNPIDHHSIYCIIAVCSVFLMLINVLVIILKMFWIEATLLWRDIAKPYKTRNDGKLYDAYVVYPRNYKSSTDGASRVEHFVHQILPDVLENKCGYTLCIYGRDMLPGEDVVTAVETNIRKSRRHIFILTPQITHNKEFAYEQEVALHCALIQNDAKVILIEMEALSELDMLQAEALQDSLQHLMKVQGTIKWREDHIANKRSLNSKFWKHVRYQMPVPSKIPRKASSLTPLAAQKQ
# T2: Human ST2-his (human, UniProt Q01638-2 19-328, limits assumed)
# T2 construct: Expressed in CHO-K1; The printed range starts at Met1; also called human ST2 fused with a 6-histidine tag at the C-terminus
# T2 sequence: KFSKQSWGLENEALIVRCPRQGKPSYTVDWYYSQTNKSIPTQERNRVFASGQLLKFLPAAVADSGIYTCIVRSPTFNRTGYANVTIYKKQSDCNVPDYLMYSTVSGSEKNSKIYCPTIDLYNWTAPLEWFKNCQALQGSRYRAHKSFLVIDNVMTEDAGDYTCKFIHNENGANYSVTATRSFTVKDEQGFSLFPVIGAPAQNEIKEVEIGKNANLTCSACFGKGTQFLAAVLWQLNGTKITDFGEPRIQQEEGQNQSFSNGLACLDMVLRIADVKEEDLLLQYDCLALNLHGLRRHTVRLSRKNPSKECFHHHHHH
# B1: 5887-537-H1L0 (antibody, human IgG4 S228P, kappa, V domains shown)
# VH: QVTLKESGPTLVKPTQTLTLTCTFSGFSLSTSGMGVGWIRQPPGKALEWLAHIWWDDVKQYNPALKSRLTITKDTSKSQVVLTMTNMDPVDTATYYCARIGGDYDYFDFWGQGTTVTVSS
# VL: DIVLTQSPASLAVSPGQRATITCRASESVEYSGTSLMQWYQQKPGQPPKLLIYVASNVESGVPARFSGSGSGTDFTLTINPVEANDTANYYCQQSRKVPWTFGQGTKLEIKR
# B2: 5888-153-H0L0 (antibody, human IgG4 S228P, kappa, V domains shown)
# VH: QVQLVQSGAEVKKPGASVKVSCKASGYTFTDYELHWVRQAPGQGLEWMGTIDPETGDTVYNQKFKARVTMTRDTSTSTVYMELSSLRSEDTAVYYCARAFYNDYDDGFAYWGQGTLVTVSS
# VL: EIVLTQSPATLSLSPGERATLSCSVSSSVSYMHWYQQKPGQAPRLLIYDTSKLASGIPARFSGSGSGTDFTLTISSLEPEDFAVYYCQQWNSSPLTFGGGTKVEIKR
# B3: 5888-153-H0L2 (antibody, human IgG4 S228P, kappa, V domains shown)
# VH: B2 VH
# VL: B2 VL with L4M, L45R, F70Y, F82A, S92T
# B4: 5888-116-H1L1 (antibody, human IgG4 S228P, kappa, V domains shown)
# VH: QVQLVQSGAEVKKPGASVKVSCKASGYTFTDSEMYWVRQAPGQGLEWMGAIDPETGDTAFNQKFKGRVTMTADKSTSTAYMELSSLRSEDTAVYYCTRAFDNDNDDGFAYWGQGTMVTVSS
# VL: DIQMTQSPSSLSASVGDRVTITCSASSSVNYMHWYQQKPGKAPKRLIYDTSKLASGVPSRFSGSGSGTDYTFTISSLQPEDAATYYCQQWSSNPLTFGQGTKLEIKR
# B5: 5888-153-H1L2 (antibody, human IgG4 S228P, kappa, V domains shown)
# VH: B2 VH with R72A, T74K, V79A, A97T
# VL: B2 VL with L4M, L45R, F70Y, F82A, S92T
# B6: 5888-153-H1L1 (antibody, human IgG4 S228P, kappa, V domains shown)
# VH: B2 VH with R72A, T74K, V79A, A97T
# VL: B2 VL with L4M, L45R, F70Y, F82A
# B7: 5888-116-H3L1 (antibody, human IgG4 S228P, kappa, V domains shown)
# VH: B4 VH with G107A
# VL: B4 VL
# B8: 5888-153-H1L0 (antibody, human IgG4 S228P, kappa, V domains shown)
# VH: B2 VH with R72A, T74K, V79A, A97T
# VL: B2 VL
# B9: 5888-357-H1L1 (antibody, human IgG4 S228P, kappa, V domains shown)
# VH: B4 VH with T28R, Y35H, A50T, D57G, A59V, F60Y, K74R, A79V, D101Y, N104F
# VL: B2 VL with L4M, V25A, S27T, L45R, F70Y, F82A, N91S, S93N
# B10: 5888-379-H0L0 (antibody, human IgG4 S228P, kappa, V domains shown)
# VH: QVQLVQSGAEVKKPGASVKVSCKASGYTFINYGMNWVRQAPGQRLEWMGWINTYIGEPTYGDNFKGRVTITRDTSASTAYMELSSLRSEDTAVYYCAREGDGFAYWGQGTLVTVSS
# VL: DIQMTQSPSSLSASVGDRVTITCKSSQSLLYSGNQNNYLAWYQQKPGKVPKLLIYGASTRESGVPSRFSGSGSGTDFTLTISSLQPEDVATYYCQNDHSYPYTFGGGTKVEIKR
# B11: 5888-379-H1L1 (antibody, human IgG4 S228P, kappa, V domains shown)
# VH: B10 VH with D101E
# VL: B10 VL with V89L
# B12: 5886-156-H1L1 (antibody, human IgG4 S228P, kappa, V domains shown)
# VH: QVQLQESGPGLVKPSQTLSLTCTVSGYSITSDYAWNWIRQPPGKGLEWIGYIDYSGSTTYNPSLKSRVTISRDTSKNQFSLKLSSVTAADTAVYYCASTVIDSMDYWGQGTLVTVSS
# VL: DIVLTQSPASLAVSPGQRATITCRASKSVSTSGHSYMHWYQQKPGQPPKLLIYLASNLESGVPARFSGSGSGTDFTLTINPVEANDAANYYCQHSREFPFTFGQGTKVEIKR
# notes: Humanized antibody
# B13: 5887-41-H1L1 (antibody, human IgG4 S228P, kappa, V domains shown)
# VH: B12 VH with N36D, D53R, S57D, T59Y, S98T, V100M, I101M, S103T
# VL: B12 VL with H34N, F100L, V108L
# Tests used:
# Human ST2-fc (human) = Human ST2-fc (human) (UniProt Q01638); test: competition ELISA, coated ST2-fc, competitor IL33-his
# [1] = biological target: T1, ST2 on the effector cells (KU812, …); test: cell-based or functional assay
# [2] = biological target: T1, ST2 on the effector cells (KU812, …); test: cell-based or functional assay; remark: listed apart in the source
# Human ST2-his = biological target: T2, Human ST2-his; test: SPR Biacore X100, antibody captured on protein A chip, human ST2-his injected, pH 7.4
# Description: The experiment on the interaction between the anti-human ST2 antibodies and human ST2-his was performed using Biacore X100.
# Each anti-human ST2 antibody was diluted to 2 µg/mL and captured on the surface of a protein A chip for a capture time of 60 s. Following the antibody capture, a solution of human ST2-his (2-fold gradient dilution from a starting concentration of 20 nM, to obtain 6 concentrations in total) was injected. Association was monitored for 180 s and dissociation was monitored for 700 s, and the sensor surface was regenerated by injecting a solution of glycine at pH 2.0. Kinetic data were analyzed using a simple 1:1 binding model.
Binder,IC50 (Human ST2-fc (human)) [µg/mL],Maximum inhibition rate (Human ST2-fc (human)) [%],Relative activity compared with CNTO7160 (Human ST2-fc (human)) [%],further results
B1,0.0882,88.3,1210,–
B2,2.57,92.9,44.3,–
B3,0.474,93.5,240,–
B4,0.486,94.9,219,–
B5,0.852,94,134,"IC50, inhibition of activation of KU812-NF-κB reporter gene by IL33 [1]: 0.0441 µg/mL; Maximum inhibition rate, KU812-NF-κB reporter gene [1]: 85%; Relative activity compared with CNTO7160, KU812-NF-κB reporter gene [1]: 454%"
B6,0.624,93.8,183,"IC50, inhibition of activation of KU812-NF-κB reporter gene by IL33 [1]: 0.0124 µg/mL; Maximum inhibition rate, KU812-NF-κB reporter gene [1]: 91.4%; Relative activity compared with CNTO7160, KU812-NF-κB reporter gene [1]: 1620%"
B7,0.611,90.7,187,–
B8,1.32,92.5,86.2,–
B9,0.49,93.2,257,–
B10,0.488,90.5,180,–
B11,0.317,89.5,276,–
B12,1,88,125,"IC50, inhibition of KU812-IL5 production promoted by IL-33 (human IL33-his) [2]: 0.0289 µg/mL; Maximum inhibition rate, KU812-IL5 production by IL-33 [2]: 95%; Relative activity compared with CNTO7160, KU812-IL5 production by IL-33 [2]: 222%; Kd (Human ST2-his): 0.261 nM; koff (Human ST2-his): 0.000377 s⁻¹; kon (Human ST2-his): 1.45e+06 M⁻¹ s⁻¹"
B13,2.23,92.4,56.2,–
